Data: publication PMC11461855 (Nature Communications, 2024)

Biological target: T1, mMED15-FLAG (Flag-tagged mouse Med15) (mouse, UniProt Q924H2 1-789)
T1 sequence: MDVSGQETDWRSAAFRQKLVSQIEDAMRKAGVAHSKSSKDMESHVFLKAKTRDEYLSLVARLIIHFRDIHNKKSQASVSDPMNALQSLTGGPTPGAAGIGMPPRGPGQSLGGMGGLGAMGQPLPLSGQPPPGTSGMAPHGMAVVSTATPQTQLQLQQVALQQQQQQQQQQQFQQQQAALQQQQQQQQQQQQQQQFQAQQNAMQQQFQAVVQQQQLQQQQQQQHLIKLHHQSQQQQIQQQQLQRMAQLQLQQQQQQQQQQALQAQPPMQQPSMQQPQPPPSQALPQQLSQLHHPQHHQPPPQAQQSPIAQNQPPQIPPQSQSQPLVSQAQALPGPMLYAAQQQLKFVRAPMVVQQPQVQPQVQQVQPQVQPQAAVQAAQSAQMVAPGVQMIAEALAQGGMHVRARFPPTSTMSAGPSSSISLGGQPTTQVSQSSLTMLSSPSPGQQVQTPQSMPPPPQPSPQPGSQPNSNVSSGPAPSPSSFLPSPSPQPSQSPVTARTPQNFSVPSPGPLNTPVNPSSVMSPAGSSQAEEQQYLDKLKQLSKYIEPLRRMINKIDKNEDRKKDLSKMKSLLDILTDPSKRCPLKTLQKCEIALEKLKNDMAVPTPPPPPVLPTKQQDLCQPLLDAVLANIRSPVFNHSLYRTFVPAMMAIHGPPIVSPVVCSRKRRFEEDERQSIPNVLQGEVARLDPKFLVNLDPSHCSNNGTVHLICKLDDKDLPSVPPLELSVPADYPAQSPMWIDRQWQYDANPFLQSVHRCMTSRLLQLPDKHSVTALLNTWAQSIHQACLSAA
Assay: pull-down

binding result: binds
B1: HA-mNKX6.1 (HA-tagged full-length mouse Nkx6-1) (natural protein)
chain: MLAVGAMEGPRQSAFLLSSPPLAALHSMAEMKTPLYPAAYPPLPTGPPSSSSSSSSSSSPSPPLGSHNPGGLKPPAAGGLSSLGSPPQQLSAATPHGINDILSRPSMPVASGAALPSASPSGSSSSSSSSASATSASAAAAAAAAAAAAAASSPAGLLAGLPRFSSLSPPPPPPGLYFSPSAAAVAAVGRYPKPLAELPGRTPIFWPGVMQSPPWRDARLACTPHQGSILLDKDGKRKHTRPTFSGQQIFALEKTFEQTKYLAGPERARLAYSLGMTESQVKVWFQNRRTKWRKKHAAEMATAKKKQDSETERLKGTSENEEDDDDYNKPLDPNSDDEKITQLLKKHKSSGGSLLLHASEAEGSS
